The values below come from paper PMC4347645.

The experiment has as its target desmoplakin (DP), endogenous (human (endogenous in HEK 293 and SCC9)) (UniProt P15924). The experiment can be described thus: proximity ligation.

desmoplakin (DP), endogenous (human (endogenous in HEK 293 and SCC9)), sequence (P15924 whole entry): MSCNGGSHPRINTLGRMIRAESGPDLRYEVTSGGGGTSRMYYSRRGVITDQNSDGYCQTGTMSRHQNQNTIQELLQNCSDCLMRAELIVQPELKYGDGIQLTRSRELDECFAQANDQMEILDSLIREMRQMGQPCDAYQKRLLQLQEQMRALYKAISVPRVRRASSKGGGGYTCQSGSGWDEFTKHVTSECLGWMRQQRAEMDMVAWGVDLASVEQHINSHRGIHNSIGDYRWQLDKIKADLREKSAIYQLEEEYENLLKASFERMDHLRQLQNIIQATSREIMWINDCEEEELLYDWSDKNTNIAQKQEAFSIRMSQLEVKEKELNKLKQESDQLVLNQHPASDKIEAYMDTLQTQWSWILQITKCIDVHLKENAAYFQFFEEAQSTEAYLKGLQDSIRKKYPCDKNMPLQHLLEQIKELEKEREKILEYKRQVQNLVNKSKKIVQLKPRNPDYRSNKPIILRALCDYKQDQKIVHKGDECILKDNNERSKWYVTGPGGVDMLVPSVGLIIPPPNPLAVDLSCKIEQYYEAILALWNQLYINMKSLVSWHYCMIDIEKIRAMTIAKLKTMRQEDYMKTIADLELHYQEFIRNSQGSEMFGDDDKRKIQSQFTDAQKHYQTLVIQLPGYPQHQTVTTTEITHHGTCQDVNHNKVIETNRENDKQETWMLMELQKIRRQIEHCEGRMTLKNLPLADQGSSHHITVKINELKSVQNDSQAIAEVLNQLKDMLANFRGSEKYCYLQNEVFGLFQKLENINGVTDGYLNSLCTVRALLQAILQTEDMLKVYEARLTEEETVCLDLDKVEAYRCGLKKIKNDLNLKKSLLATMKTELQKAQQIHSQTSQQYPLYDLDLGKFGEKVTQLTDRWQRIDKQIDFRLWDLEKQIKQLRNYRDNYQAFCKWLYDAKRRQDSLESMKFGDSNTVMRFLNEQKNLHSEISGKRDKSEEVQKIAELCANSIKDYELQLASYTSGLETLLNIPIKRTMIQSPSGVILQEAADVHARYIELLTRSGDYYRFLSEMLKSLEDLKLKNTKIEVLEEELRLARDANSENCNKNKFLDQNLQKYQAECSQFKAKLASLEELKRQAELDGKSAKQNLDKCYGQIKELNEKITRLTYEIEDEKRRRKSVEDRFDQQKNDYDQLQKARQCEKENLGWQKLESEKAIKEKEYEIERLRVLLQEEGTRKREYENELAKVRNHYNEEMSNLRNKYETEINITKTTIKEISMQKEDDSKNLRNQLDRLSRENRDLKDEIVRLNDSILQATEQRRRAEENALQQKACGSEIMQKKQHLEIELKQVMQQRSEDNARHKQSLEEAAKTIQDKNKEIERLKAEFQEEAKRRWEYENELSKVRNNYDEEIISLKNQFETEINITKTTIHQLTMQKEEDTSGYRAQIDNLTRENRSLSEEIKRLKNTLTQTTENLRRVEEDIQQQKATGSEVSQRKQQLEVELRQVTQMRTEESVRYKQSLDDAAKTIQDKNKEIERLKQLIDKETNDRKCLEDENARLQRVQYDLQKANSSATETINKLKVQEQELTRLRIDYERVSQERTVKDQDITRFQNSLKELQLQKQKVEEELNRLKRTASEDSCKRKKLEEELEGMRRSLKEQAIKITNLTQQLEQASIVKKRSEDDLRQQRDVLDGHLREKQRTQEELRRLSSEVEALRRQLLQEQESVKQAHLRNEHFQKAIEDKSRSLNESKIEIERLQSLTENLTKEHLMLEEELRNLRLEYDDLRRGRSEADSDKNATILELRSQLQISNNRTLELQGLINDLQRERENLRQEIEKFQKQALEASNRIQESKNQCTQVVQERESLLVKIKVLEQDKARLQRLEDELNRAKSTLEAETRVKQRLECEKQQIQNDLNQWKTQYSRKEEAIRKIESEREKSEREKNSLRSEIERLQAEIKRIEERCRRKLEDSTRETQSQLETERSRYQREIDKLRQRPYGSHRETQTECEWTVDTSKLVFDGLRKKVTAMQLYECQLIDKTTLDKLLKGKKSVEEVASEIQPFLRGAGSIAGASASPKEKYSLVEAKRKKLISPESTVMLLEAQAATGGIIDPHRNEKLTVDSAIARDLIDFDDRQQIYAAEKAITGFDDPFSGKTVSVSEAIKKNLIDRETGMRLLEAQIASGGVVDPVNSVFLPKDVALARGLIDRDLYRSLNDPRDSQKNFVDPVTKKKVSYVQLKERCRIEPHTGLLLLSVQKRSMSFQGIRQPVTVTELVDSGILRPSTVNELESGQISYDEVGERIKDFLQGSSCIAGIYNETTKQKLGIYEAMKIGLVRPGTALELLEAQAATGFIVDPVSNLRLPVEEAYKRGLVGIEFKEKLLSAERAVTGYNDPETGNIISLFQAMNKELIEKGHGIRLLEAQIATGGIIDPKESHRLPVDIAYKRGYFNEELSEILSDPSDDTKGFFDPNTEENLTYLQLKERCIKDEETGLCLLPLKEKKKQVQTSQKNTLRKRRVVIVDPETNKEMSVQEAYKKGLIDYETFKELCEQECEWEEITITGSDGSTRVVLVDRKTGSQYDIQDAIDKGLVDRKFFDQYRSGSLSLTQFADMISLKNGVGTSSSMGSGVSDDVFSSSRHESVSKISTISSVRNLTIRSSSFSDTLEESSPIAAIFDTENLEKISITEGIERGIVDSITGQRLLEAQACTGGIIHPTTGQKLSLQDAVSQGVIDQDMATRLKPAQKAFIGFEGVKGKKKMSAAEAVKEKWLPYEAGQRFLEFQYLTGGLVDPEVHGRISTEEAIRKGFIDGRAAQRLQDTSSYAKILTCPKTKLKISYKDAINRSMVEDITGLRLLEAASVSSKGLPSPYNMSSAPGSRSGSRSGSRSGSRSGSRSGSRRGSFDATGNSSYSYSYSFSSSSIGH
GSK3, endogenous in SCC9 cells, sequence (P49841 whole entry): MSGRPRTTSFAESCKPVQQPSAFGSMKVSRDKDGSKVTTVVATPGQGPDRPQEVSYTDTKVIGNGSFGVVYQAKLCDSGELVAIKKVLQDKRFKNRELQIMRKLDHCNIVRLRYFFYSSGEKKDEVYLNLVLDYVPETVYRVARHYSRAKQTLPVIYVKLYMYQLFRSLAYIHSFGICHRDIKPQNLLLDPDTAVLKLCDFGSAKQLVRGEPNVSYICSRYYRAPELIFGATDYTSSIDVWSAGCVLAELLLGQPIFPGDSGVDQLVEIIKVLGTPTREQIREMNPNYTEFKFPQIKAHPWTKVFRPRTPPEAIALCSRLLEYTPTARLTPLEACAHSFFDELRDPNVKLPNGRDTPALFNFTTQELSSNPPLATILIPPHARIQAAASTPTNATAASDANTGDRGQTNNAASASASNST

“GSK3, endogenous in SCC9 cells (from UniProt P49841 1-420) (enzyme)”: the PLA fluorescent dots, fold over negative control antibody pairings was determined as 20 fold.
